The conditions of this data set: Saccharomyces cerevisiae (strain ATCC 204508 / S288c); pH 7; 25 °C; GdnHCl; CD; Tris 20 mM; NaCl 40 mM; structure 1YCC.
Cytochrome c isoform 1 K17Q, P00044, sequence (P00044 whole entry K17Q, canonical isoform): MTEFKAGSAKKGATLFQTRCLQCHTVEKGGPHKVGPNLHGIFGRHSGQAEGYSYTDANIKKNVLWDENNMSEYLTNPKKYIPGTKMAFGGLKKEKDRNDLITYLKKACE
Cytochrome c isoform 1 K10Q|K11Q, P00044 K10Q K11Q, sequence (P00044 whole entry K10Q/K11Q, canonical isoform): as the sequence (P00044 whole entry K17Q, canonical isoform) above, with K10Q, K11Q, Q17K counted along it
Cytochrome c isoform 1 K28Q, P00044, sequence (P00044 whole entry K28Q, canonical isoform): as the sequence (P00044 whole entry K17Q, canonical isoform) above, with Q17K, K28Q counted along it
Cytochrome c isoform 1 K33Q, P00044, sequence (P00044 whole entry K33Q, canonical isoform): as the sequence (P00044 whole entry K17Q, canonical isoform) above, with Q17K, K33Q counted along it
Cytochrome c isoform 1 K60Q|K61Q, P00044 K60Q K61Q, sequence (P00044 whole entry K60Q/K61Q, canonical isoform): as the sequence (P00044 whole entry K17Q, canonical isoform) above, with Q17K, K60Q, K61Q counted along it
Regarding “Cytochrome c isoform 1 K10Q|K11Q, P00044 K10Q K11Q”, the denaturant m value was found to be 3.06 kcal/mol/M, the “denaturant midpoint (higher = more stable)” value (from here on “denaturant midpoint”) came out at 1.05 M and the unfolding free energy was found to be 3.2 kcal/mol.

Take Cytochrome c isoform 1 K17Q, P00044: the denaturant m value worked out at 5.33 kcal/mol/M, the “denaturant midpoint” value turned out to be 0.64 M and the unfolding free energy came to 3.37 kcal/mol.

In the case of Cytochrome c isoform 1 K28Q, P00044, the denaturant m value worked out at 3.2 kcal/mol/M, the “denaturant midpoint” value is 0.94 M and the unfolding free energy amounted to 2.96 kcal/mol.

Turning to Cytochrome c isoform 1 K33Q, P00044, the denaturant m value was 3.7 kcal/mol/M, the “denaturant midpoint” value is 1.09 M and the unfolding free energy is 4.04 kcal/mol.

In the case of “Cytochrome c isoform 1 K60Q|K61Q, P00044 K60Q K61Q”, the denaturant m value is 3.06 kcal/mol/M, the “denaturant midpoint” value is 0.99 M and the unfolding free energy was 3.04 kcal/mol.

Source of the values: FireProtDB (doi:10.1021/bi026827i).
